In patent publication US20230037815A1 (CULLINAN THERAPEUTICS, published 2023):

Columns and labels:
human CD3 [1] = target: human CD3 (human); assay: method not given
human CD3 [2] = target: human CD3 (human); assay: BLI, Octet method of WO2018208864A1
human CD3 [3] = target: human CD3 (human); assay: SPR, BiaCore method of WO2018208864A1
human serum albumin = target: T1, human serum albumin (human, UniProt P02768 25-609); assay: Octet HTX (ForteBio), HCAb on AHC sensor, 1:1 fit
T1 construct: also called HSA

cynomolgus serum albumin = cynomolgus serum albumin (cynomolgus, UniProt A2V9Z4 25-608); assay: Octet HTX (ForteBio), HCAb on AHC sensor, 1:1 fit
mouse serum albumin [4] = target: T2, mouse serum albumin (mouse, UniProt P07724 25-608); assay: Octet HTX (ForteBio), HCAb on AHC sensor, 1:1 fit
T2 construct: also called MSA

mouse serum albumin [5] = target: T2, mouse serum albumin; assay: ratio of the Octet KD for mouse serum albumin to that for human serum albumin
protein A = protein A (UniProt P38507 37-327); assay: Octet HTX (ForteBio), HCAb on AHC sensor; legend: no binding was detected under the conditions of this assay

T2 sequence (P07724 25-608 limits assumed): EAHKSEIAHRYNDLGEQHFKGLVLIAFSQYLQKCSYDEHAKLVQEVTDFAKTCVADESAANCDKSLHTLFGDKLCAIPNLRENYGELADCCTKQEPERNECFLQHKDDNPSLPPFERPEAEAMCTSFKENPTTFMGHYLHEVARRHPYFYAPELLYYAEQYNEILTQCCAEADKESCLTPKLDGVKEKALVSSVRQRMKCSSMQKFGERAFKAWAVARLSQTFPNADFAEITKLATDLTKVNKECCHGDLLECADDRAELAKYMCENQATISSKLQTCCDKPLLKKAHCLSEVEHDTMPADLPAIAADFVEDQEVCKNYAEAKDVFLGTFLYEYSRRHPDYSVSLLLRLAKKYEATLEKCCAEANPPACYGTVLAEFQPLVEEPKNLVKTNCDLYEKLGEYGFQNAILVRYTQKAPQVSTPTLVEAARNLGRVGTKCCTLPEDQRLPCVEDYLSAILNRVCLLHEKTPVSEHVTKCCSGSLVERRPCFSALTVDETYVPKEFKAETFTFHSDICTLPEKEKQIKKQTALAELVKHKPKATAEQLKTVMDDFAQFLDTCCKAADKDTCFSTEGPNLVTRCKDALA
Chain of human CD3 (human) (chain, as listed by the source): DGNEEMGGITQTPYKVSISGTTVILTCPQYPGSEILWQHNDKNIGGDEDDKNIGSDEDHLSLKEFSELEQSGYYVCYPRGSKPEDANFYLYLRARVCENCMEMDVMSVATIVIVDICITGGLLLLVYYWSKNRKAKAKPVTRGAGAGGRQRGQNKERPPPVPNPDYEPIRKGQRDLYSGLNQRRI
Chain of cynomolgus serum albumin (A2V9Z4 25-608 limits assumed): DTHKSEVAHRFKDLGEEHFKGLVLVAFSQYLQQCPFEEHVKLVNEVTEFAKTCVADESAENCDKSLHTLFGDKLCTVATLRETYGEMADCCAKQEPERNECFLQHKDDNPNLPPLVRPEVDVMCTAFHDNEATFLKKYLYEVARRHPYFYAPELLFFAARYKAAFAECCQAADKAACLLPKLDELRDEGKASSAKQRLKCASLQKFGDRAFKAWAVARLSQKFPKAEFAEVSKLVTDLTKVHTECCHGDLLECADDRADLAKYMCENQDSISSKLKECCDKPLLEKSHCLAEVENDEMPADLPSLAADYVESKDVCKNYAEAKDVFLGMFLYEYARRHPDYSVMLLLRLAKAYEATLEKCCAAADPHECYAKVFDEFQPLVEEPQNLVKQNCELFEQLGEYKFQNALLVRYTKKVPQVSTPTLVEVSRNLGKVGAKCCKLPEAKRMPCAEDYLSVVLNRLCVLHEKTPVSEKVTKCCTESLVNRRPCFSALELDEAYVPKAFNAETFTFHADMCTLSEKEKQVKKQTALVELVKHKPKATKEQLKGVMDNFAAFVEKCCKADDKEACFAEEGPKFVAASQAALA

Kd (human CD3 [1])	Kd (human CD3 [2])	Kd (human CD3 [3])	Kd (human serum albumin)	koff (human serum albumin)	Kd (cynomolgus serum albumin)	koff (cynomolgus serum albumin)	Kd (mouse serum albumin [4])	koff (mouse serum albumin [4])	Ratio of MSA-KD to HSA-KD (mouse serum albumin [5])	binding result (protein A)	Binder
1.6 nM	4.4 nM	1.9 nM									CNG-CD3-1 scFv construct (scFv) scFv: DIVMTQSPDSLAVSLGERATINCKSSQSLLNARTGKNYLAWYQQKPGQPPKLLIYWASTRESGVPDRFSGSGSGTDFTLTISSLQAEDVAVYYCKQSYSRRTFGGGTKVEIKGGGGSGGGGSGGGGSGGGGSQVQLVQSGAEVKKPGASVKVSCKASGFNIKDYYMHWVRQAPGQRLEWMGWIDLENANTIYDAKFQGRVTITRDTSASTAYMELSSLRSEDTAVYYCARDAYGRYFYDVWGQGTLVTVSS
			17 nM	0.00297 s⁻¹	14.4 nM	0.00238 s⁻¹	57.8 nM	0.0124 s⁻¹	3.41	no binding	CNG-HSA-106 (VHH) VHH: KVQLLESGGGLVQPGGSLRLSCAASGFTFSSFGMSWVRQAPGKGLEWVSSISGSGSDTLYADSVRGRFTISRDNSKNTLYLQMDSLRAEDTAVYYCTIGGSRSISSQGTLVTVSS
